Test results from patent publication US20120123096 (published 2012).

How the values were obtained:
Experiment in all cases: ELONA
Settings in all cases: stem-loop (predicted)
[1] = molecular target: Botulinum neurotoxin type B light chain (UniProt B1INP5 B1INP5:2-441)
[2] = molecular target: Botulinum neurotoxin type B holotoxin (BoNT B HT) (UniProt B1INP5;B1INP5 B1INP5:2-441,B1INP5:442-1291)
[3] = molecular target: Botulinum neurotoxin type A light chain (50 kDa zinc endopeptidase) (UniProt P0DPI1 P0DPI1:2-448)
Botulinum neurotoxin type A light chain (50 kDa zinc endopeptidase), sequence (P0DPI1 2-448, one chain of several): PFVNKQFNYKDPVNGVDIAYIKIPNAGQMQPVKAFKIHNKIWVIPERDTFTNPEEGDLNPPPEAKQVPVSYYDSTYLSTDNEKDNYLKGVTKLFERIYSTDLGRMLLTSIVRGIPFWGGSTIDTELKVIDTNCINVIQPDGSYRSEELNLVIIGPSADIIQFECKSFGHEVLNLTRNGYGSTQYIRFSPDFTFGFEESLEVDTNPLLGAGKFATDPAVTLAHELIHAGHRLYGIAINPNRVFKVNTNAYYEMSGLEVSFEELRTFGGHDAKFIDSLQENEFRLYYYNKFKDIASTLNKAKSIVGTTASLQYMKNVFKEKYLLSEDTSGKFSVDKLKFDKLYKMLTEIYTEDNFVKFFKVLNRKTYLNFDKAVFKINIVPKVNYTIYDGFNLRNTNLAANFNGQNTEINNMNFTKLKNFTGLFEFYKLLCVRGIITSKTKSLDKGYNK

[4] = molecular target: Botulinum neurotoxin type A holotoxin (BoNT A HT) (UniProt P0DPI1;P0DPI1 P0DPI1:2-448,P0DPI1:449-1296)
Botulinum neurotoxin type A holotoxin (BoNT A HT), sequence (P0DPI1 2-448, chain 1 of 2): as the sequence (P0DPI1 2-448, one chain of several) above
Botulinum neurotoxin type A holotoxin (BoNT A HT), sequence (P0DPI1 449-1296, chain 2 of 2): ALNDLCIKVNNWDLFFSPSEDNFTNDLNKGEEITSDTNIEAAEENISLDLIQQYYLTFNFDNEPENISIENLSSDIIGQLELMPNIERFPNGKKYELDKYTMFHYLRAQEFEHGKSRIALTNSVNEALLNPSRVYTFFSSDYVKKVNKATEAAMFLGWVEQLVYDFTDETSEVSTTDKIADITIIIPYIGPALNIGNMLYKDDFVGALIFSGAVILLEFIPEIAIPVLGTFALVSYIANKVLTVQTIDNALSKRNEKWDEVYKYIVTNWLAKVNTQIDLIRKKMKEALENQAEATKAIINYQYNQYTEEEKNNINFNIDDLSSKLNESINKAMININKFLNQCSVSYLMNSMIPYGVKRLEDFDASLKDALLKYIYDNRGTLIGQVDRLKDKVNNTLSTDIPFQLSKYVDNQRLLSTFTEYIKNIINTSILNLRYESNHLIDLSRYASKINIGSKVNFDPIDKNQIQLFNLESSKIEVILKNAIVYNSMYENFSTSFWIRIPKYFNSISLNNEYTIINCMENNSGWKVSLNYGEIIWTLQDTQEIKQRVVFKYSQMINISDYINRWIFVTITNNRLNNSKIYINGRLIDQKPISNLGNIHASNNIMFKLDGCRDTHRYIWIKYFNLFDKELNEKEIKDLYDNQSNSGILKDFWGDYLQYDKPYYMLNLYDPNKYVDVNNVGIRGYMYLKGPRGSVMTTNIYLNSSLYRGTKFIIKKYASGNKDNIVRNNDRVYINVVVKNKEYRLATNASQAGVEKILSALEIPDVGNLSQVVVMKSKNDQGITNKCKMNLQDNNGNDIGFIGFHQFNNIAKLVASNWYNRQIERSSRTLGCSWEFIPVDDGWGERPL

Measured: binding result

Botulinum neurotoxin type B light chain, sequence (B1INP5 2-441, one chain of several): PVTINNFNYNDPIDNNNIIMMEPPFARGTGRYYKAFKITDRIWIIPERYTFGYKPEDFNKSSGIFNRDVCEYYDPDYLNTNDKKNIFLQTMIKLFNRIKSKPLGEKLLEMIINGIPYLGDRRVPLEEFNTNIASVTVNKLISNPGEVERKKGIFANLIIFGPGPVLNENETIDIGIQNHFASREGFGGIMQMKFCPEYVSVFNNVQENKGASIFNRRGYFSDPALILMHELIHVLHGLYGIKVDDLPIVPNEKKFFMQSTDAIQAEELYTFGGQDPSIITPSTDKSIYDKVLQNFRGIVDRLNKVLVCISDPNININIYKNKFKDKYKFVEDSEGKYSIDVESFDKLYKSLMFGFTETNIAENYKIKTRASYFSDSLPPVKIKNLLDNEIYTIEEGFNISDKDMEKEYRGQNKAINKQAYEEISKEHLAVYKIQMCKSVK
Botulinum neurotoxin type B holotoxin (BoNT B HT), sequence (B1INP5 2-441, chain 1 of 2): as the sequence (B1INP5 2-441, one chain of several) above
Botulinum neurotoxin type B holotoxin (BoNT B HT), sequence (B1INP5 442-1291, chain 2 of 2): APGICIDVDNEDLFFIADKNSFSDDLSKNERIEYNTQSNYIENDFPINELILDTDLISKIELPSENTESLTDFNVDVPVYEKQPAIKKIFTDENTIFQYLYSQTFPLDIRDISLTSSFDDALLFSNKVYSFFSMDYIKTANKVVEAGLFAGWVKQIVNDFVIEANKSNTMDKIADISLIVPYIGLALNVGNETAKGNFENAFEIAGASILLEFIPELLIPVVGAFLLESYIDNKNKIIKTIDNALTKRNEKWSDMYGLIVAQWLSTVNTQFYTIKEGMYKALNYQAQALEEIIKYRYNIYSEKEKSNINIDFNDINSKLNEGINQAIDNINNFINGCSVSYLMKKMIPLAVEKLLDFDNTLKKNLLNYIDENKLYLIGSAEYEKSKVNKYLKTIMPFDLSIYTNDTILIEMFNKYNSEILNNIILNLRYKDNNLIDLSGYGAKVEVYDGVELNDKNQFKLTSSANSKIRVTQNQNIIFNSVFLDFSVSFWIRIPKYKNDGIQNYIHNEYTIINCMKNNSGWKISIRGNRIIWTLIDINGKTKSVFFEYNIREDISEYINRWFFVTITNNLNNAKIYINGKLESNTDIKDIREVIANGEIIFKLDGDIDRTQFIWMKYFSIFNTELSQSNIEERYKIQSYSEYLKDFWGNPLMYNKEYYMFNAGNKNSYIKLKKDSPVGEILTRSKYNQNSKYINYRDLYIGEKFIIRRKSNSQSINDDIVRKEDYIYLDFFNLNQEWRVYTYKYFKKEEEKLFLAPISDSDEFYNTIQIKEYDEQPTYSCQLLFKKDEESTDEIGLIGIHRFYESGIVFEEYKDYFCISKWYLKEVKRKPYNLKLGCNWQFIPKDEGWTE

B1: BoNT A/B HT aptamer (ssDNA)
DNA: CATCCGTCACACCTGCTCTGCTATCACATGCCTGCTGAAGTGGTGTTGGCTCCCGTATCA
binds: all assays above

B2: BoNT A/B LC aptamer (ssDNA)
DNA: CATCCGTCACACCTGCTCTGATCAGGGAAGACGCCAACACTGGTGTTGGCTCCCGTATCA
binds: all assays above
